In test [1] the target is CTLA4Ig fusion protein (human) (UniProt P16410). Description: solid phase binding, 4 nM ^125I-B7Ig on immobilized CTLA4Ig.
For test [2] the target is unchanged. Kind of test: solid phase competition, ^125I-B7Ig (4 nM) on immobilized CTLA4Ig.
The target is the same in test [3]. Description: Scatchard plot of the solid phase competition data, immobilized CTLA4Ig.
In test [4] the target is T1, B7 antigen (B7-1) stably expressed on CHO cells (UniProt P33681 35-288, limits assumed).
T1 construct: whole, on cells; also called B7+CHO cells; B7 positive CHO cells
T1 sequence (looked up): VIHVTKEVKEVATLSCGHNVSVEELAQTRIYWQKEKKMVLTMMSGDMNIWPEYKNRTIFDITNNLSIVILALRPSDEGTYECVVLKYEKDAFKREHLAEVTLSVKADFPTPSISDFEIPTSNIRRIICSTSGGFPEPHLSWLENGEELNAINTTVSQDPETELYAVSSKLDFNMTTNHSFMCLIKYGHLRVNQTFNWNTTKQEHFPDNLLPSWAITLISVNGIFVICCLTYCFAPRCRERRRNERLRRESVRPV
Description: cell enzyme immunoassay on fixed B7-1+ CHO cells.

As usually defined, the IC50 is the midpoint of a concentration-inhibition curve. A higher IC50 goes with lower potency. One may read the Kd as a measure of binding affinity in units of concentration. High values mean lower affinity, low ones higher affinity. As to “B7Ig fusion protein (from UniProt P33681 35-241) (Fc fusion)”, the radioactivity bound to wells treated without competitor in test [1] worked out at 28300 cpm. The concentration for half-maximal inhibition (IC50) in test [2] was determined as 175 nM. The molecule also returned an equilibrium dissociation constant (Kd) in test [3] of 12 nM.

B1: CTLA4/CD28Ig hybrid fusion protein HS9 (Fc fusion)
chain: NKILVKQSPMLVAYDNAVNLSCKYASPGKATEFRASLHKGLDSAVEVCVVYGNYSQQLQVYSKTGFNCDGKLGNESVTFYLQNLYVNQTDIYFCKIEVMYPPPYLDNEKSNGTIIYVIDPEPCPD
notes: range 1-24;range 33-115; not shown: human IgG1 hinge (Cys to Ser), CH2, CH3; junction printed as DQE
As for B1, the binding result in test [4] is “binds”.

B2: CTLA4/CD28Ig hybrid fusion protein HS5 (Fc fusion)
chain: NKILVKQSPMLVAYDNAVNLSCKYASPGKATEFRASLHKGLDSAVEVCVVYGNYSQQLQVYSKTGFNCDGKLGNESVTFYLQNLYVNQTDIYFCKIEVMYPPPYLDNEKSNGTIIHVKGKHLCPS
notes: CD28Ig itself runs to about 134; not shown: human IgG1 hinge (Cys to Ser), CH2, CH3; junction printed as DQE
On to B2, for which the binding result in test [4] is “binds”.

B3: CTLA4/CD28Ig hybrid fusion protein HS4-B (Fc fusion)
chain: NKILVKQSPMLVAYDNAVNLSCKYSYNLFSREFRASLHKGLDSAVEVCVVYGNYSQQLQVYSKTGFNCDGKLGNESVTFYLQNLYVNQTDIYFCKIEVMYPPPYLDNEKSNGTIIYVIDPEPCPD
notes: range 1-115; not shown: human IgG1 hinge (Cys to Ser), CH2, CH3; junction printed as DQE
For the molecule B3, the binding result in test [4] is given as “binds”.

B4: CTLA4/CD28Ig hybrid fusion protein HS8 (Fc fusion)
chain: NKILVKQSPMLVAYDNAVNLSCKYASPGKATEFRASLHKGLDSAVEVCVVYGNYSQQLQVYSKTGFNCDGKLGNESVTFYLQNLYVNQTDIYFCKIELMYPPPYYLGIGNGTQIHVKGKHLCPS
notes: not shown: human IgG1 hinge (Cys to Ser), CH2, CH3; junction printed as DQE
As for B4, the “% of wild type binding” value in test [4] was about 60%.

B5: CTLA4/CD28Ig hybrid fusion protein HS2 (Fc fusion)
chain: AMHVAQPAVVLASSRGIASFVCKYSYNLFSREFRASLHKGLDSAVEVCVVYGNYSQQLQVYSKTGFNCDGKLGNESVTFYLQNLYVNQTDIYFCKIELMYPPPYYLGIGNGTQIYVIDPEPCPDSD
notes: range 23-96; not shown: human IgG1 hinge (Cys to Ser), CH2, CH3; junction printed as DQE
As for B5, the binding result in test [4] is on record as “binds”.

B6: CTLA4/CD28Ig hybrid fusion protein HS11 (Fc fusion)
chain: NKILVKQSPMLVAYDNAVNLSCKYASPGKATEFRASLHKGLDSAVEVCVATYMMGNELQVYSKTGFNCDGKLGNESVTFYLQNLYVNQTDIYFCKIELMYPPPYYLGIGNGTQIYVIDPEPCPD
notes: range 1-24;range 33-49;range 58-96; not shown: human IgG1 hinge (Cys to Ser), CH2, CH3; junction printed as DQE
On to B6, for which the binding result in test [4] is on record as “binds”.

B7: CTLA4/CD28Ig hybrid fusion protein HS13 (Fc fusion)
chain: NKILVKQSPMLVAYDNAVNLSCKYASPGKATEFRASLHKGLDSAVEVCVATYMMGNELQVYSKTGFNCDGKLGNESVTFYLQNLYVNQTDIYFCKIELMYPPPYYLGIGNGTQIHVKGKHLCPS
notes: as for B4
Regarding B7, the binding result in test [4] is “binds”.

B8: CTLA4/CD28Ig hybrid fusion protein HS4 (Fc fusion)
chain: NKILVKQSPMLVAYDNAVNLSCKYSYNLFSREFRASLHKGLDSAVEVCVVYGNYSQQLQVYSKTGFNCDGKLGNESVTFYLQNLYVNQTDIYFCKIELMYPPPYYLGIGNGTQIYVIDPEPCPD
notes: range 1-96; also called the CD28Ig analog; not shown: human IgG1 hinge (Cys to Ser), CH2, CH3; junction printed as DQE
As to B8, in test [4], the “fold less binding than wild type CTLA4Ig” value was about 5 fold and the “increase in binding relative to CD28Ig” value is ~2.5 orders of magnitude.

B9: CTLA4/CD28Ig hybrid fusion protein HS10 (Fc fusion)
chain: NKILVKQSPMLVAYDNAVNLSCKYSYNLFSREFRASLHKGLDSAVEVCVATYMMGNELQVYSKTGFNCDGKLGNESVTFYLQNLYVNQTDIYFCKIELMYPPPYYLGIGNGTQIYVIDPEPCPD
notes: range 1-49;range 58-96; not shown: human IgG1 hinge (Cys to Ser), CH2, CH3; junction printed as DQE
For B9, the binding result in test [4] is “binds”.

B10: CTLA4/CD28Ig hybrid fusion protein HS4-A (Fc fusion)
chain: NKILVKQSPMLVAYDNAVNLSCKYSYNLFSREFRASLHKGLDSAVEVCVVYGNYSQQLQVYSKTGFNCDGKLGNESVTFYLQNLYVNQTDIYFCKIELMYPPPYYLGIGNGTQIHVKGKHLCPS
notes: as for B4
Take B10: the “% of wild type binding” value in test [4] is about 2%.

B11: CTLA4/CD28Ig hybrid fusion protein HS7 (Fc fusion)
chain: NKILVKQSPMLVAYDNAVNLSCKYASPGKATEFRASLHKGLDSAVEVCVVYGNYSQQLQVYSKTGFNCDGKLGNESVTFYLQNLYVNQTDIYFCKIELMYPPPYYLGIGNGTQIYVIDPEPCPD
notes: range 1-24;range 33-96; not shown: human IgG1 hinge (Cys to Ser), CH2, CH3; junction printed as DQE
Consider B11, for which the “% binding activity relative to CTLA4Ig” value in test [4] was about 44%.

B12: CTLA4/CD28Ig hybrid fusion protein HS6 (Fc fusion)
chain: AMHVAQPAVVLASSRGIASFVCEYSYNLFSREVRVTVLRQADSQVTEVCAATYMMGNELTFLDDSICTGTSSGNQVNLTIQGLRAMDTGLYICKVELMYPPPYYLGIGNGTQIYVIDPEPCPDSD
notes: range 25-32; not shown: human IgG1 hinge (Cys to Ser), CH2, CH3; junction printed as DQE
Consider B12, for which the binding result in test [4] is given as “binds”.

B13: CTLA4/CD28Ig hybrid fusion protein HS12 (Fc fusion)
chain: NKILVKQSPMLVAYDNAVNLSCKYSYNLFSREFRASLHKGLDSAVEVCVATYMMGNELQVYSKTGFNCDGKLGNESVTFYLQNLYVNQTDIYFCKIELMYPPPYYLGIGNGTQIHVKGKHLCPS
notes: as for B4
B13: the binding result in test [4] is “binds”.

The values are drawn from patent publication US20090317397A1 (published 2009).
